The results in this text go back to publication PMC6631453, “Set-Up and Validation of a High Throughput Screening Method for Human Monoacylglycerol Lipase (MAGL) Based on a New Red Fluorescent Probe” (Molecules, 2019).

Data set [1] addresses T1, human recombinant monoacylglycerol lipase (hMAGL) (Homo sapiens, UniProt Q99685).
T1 construct: gene MGLL
T1 sequence (Q99685 1-303): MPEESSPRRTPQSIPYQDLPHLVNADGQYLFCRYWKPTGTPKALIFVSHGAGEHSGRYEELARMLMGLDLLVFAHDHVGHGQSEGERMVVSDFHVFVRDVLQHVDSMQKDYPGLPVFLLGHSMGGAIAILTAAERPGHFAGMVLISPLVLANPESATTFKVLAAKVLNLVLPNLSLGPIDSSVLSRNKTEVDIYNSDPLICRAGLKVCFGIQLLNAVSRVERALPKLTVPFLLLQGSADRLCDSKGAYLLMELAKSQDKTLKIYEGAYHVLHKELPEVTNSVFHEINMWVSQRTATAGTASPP
Briefly: fluorogenic hydrolysis at […], normalized to 1c. The format is biochemical.

Data set [2] addresses T1, human recombinant monoacylglycerol lipase (hMAGL). As to the kind of experiment: fluorogenic assay with substrate 1c, […] min pre-incubation. The format is biochemical.
Substrate in data set [3]: CCCCCCCC(=O)Oc1ccc2nc3ccc(=O)cc-3oc2c1
As to the kind of experiment: purified protein. The class given is biochemical, Homo sapiens.

Substrate in data set [4]: CCCCCCC(CCCC)C(=O)Oc1ccc2nc3ccc(=O)cc-3oc2c1
As to the kind of experiment: fluorogenic hydrolysis kinetics (Km), very low Vmax. The format is biochemical, Homo sapiens.

Substrate in data set [5]: CCCCC(CC)C(=O)Oc1ccc2nc3ccc(=O)cc-3oc2c1
Briefly: fluorogenic hydrolysis kinetics (Km), low Vmax. The class given is biochemical, Homo sapiens.

Substrate in data set [6]: CCCCCCCC/C=C\CCCCCCCC(=O)Oc1ccc2nc3ccc(=O)cc-3oc2c1
As to the kind of experiment: fluorogenic hydrolysis kinetics (Km). The format is biochemical, Homo sapiens.

Substrate in data set [7]: CCCCCCCCCCCC(=O)Oc1ccc2nc3ccc(=O)cc-3oc2c1
Briefly: fluorogenic hydrolysis kinetics (Km). The class given is biochemical, Homo sapiens.

Substrate in data set [8]: CCCCC(C)C(=O)Oc1ccc2nc3ccc(=O)cc-3oc2c1
As to the kind of experiment: fluorogenic hydrolysis kinetics (Km). The format is biochemical, Homo sapiens.

As for `CCCCC/C=C\C/C=C\C/C=C\C/C=C\CCCC(=O)Oc1ccc2nc3ccc(=O)cc-3oc2c1` [1g, 7-hydroxyresorufinyl arachidonate], in data set [1], the “fluorogenic hydrolysis at 5 μM, normalized to 1c” value is on record as “Normalized hydrolysis of different substrates by hMAGL”.
In general, IC50 refers to the midpoint of a concentration-inhibition curve. For `O=C(Nc1cccc(-c2ccccc2)c1)OC1CCCCC1` [URB602], the half-inhibitory concentration (IC50) in data set [2] amounted to 8.1 µM.

B1: human recombinant monoacylglycerol lipase (hMAGL) (Homo sapiens) (protein)
chain: MPEESSPRRTPQSIPYQDLPHLVNADGQYLFCRYWKPTGTPKALIFVSHGAGEHSGRYEELARMLMGLDLLVFAHDHVGHGQSEGERMVVSDFHVFVRDVLQHVDSMQKDYPGLPVFLLGHSMGGAIAILTAAERPGHFAGMVLISPLVLANPESATTFKVLAAKVLNLVLPNLSLGPIDSSVLSRNKTEVDIYNSDPLICRAGLKVCFGIQLLNAVSRVERALPKLTVPFLLLQGSADRLCDSKGAYLLMELAKSQDKTLKIYEGAYHVLHKELPEVTNSVFHEINMWVSQRTATAGTASPP
What is called Km is the substrate concentration at which the rate is half of its maximum. Broadly, the Vmax is the top rate of the reaction or transport when substrate is in excess. As for B1, the Km was 0.66 µM in data set [3]; 1.1 µM in data set [4]; 2.8 µM in data set [5]; 0.42 µM in data set [6]; 0.31 µM in data set [7]; 1.09 µM in data set [8]. For the same molecule, the Vmax in data set [3] (catalytic active site near Ser122 (docking only)) was 0.106 µmol/min/mg; in data set [4] it was 0.00067 µmol/min/mg; in data set [5], 0.0013 µmol/min/mg; in data set [6] it was 0.013 µmol/min/mg; in data set [7], 0.024 µmol/min/mg; in data set [8] it was 0.033 µmol/min/mg.
